Assay results as given in patent US20150266951A1 (SNU R AND DB FOUNDATION, published 2015).

T1: Epitope 4 of IP-10 (amino acids 61-98), recombinant segment expressed in E. coli from pET41 (human)
T1 construct: Segment cloned EcoRI/XhoI into PET41 vector and tested as lysate of the expressing E. coli in western blot; any tags from the vector are not described; not shown: vector-coded fusion part of pET41 (GST is run as the negative control)
T1 chain: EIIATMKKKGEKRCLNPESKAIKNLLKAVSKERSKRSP

T2: recombinant human IP-10 protein (IFN-γ-inducible protein 10) (human, UniProt P02778 22-98)
T2 construct: also called IP-10 antigen; recombinant IP-10
T2 sequence: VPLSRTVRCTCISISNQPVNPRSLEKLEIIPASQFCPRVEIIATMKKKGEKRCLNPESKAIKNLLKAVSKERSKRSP


How the values were obtained:
[1] = target: T1, Epitope 4 of IP-10 (amino acids 61-98), …; test: western blot on recombinant IP-10 segments expressed in E. coli
Procedure: E. coli expressing each of the 4 epitopes of recombinant IP-10 was suspended in PBS buffer (137 mM NaCl, 2.7 mM KCl, 10 mM Na2HPO4, 2 mM KH2PO4) and the same volume of SDS-gel loading buffer (100 mM Tris-C1 (pH 6.8), 4% SDS, 0.2% bromophenol blue, 20% glycerol, 200 mM DTT) and heated at 100° C. for 5 min. The mixture was then centrifuged at 13,000 rpm for 10 min and the supernatant was separated on 12% SDS-PAGE, and the proteins separated on the gel were transferred to a polyvinylidenfluoride membrane. Western blot was performed using anti-IP-10 antibody and enhanced chemiluminescent reagent.

[2] = target: T2, recombinant human IP-10 protein …; test: western blot on recombinant human IP-10 protein

binding result [1] | binding result [2] | Binder
binds | binds | anti-IP-10 monoclonal antibody #116 (antibody, V domains shown, Mouse monoclonal antibody from a hybridoma; also called clone #116; clone #116 monoclonal antibody) VH: QVQLQQSGPELVKPGASVKISCKASGYAFSSSWMNWVKQRPGQGLEWIGRIYPGDGDTNYNGKFKGKATLTADKSSSTAYMQLSSLTSVDSAVYFCARIGNYYGSSYLYWYFDVWGAGTTVTVS VL: DIQMTQSPSSLSASLGGKVTITCKASQDIDKYIAWYQHRPGKGPSLLIHYTSTLQPGIPSRFSGSGSGKNYSFSISNLEPEDIATYYCLQYDNLLLTFGAGTKLELKR
binds | binds | anti-IP-10 monoclonal antibody #129 (antibody, V domains shown, Mouse monoclonal antibody from a hybridoma; also called clone #129; clone #129 monoclonal antibody) VH: QVQLKQSGPGLVQPSQSLSITCTVSGFSLTSYGVHWVRQSPGKGLEWLGVIWSGGSTDYNAAFISRLSISKDNSKSQVFFKMNSLQANDTAIYYCARNWGAMDYWGQGTSVTVSS VL: DIVMTQSPSSLSVSAGEKVTMSCKSSQSLLNSGNQKNYLAWYQQKPGQPPKLLIYGASTRESGVPDRFTGSGSGTDFTLTISSVQAEDLAVYYCQNDHSYPLTFGAGTKLELKR
binds | binds | anti-IP-10 monoclonal antibody #88 (antibody, V domains shown, Mouse monoclonal antibody from a hybridoma; also called clone #88; clone #88 monoclonal antibody) VH: EVMLVESGGGLVKPGGSLKLSCTVSGFTFSGYAMSWVRQTPEKRLEWVASITSGGSYTSYPDNMKGRLTISRDNDRNTLDLQMSSLRSEDTAMYFCTRHSPVIASWFAYWGQGTLVHC VL: DVLMTQTPLSLPVSLGDQASISCRSSQSIVHSNGNTYLEWYLQKPGQSPKLLIYKVSNRFSGVPDRFSGSGSGTDFTLKISRVEAEDMGVYYCFQGSHVPFTFGSGTKLEIKR
binds | binds | anti-IP-10 monoclonal antibody #77 (antibody, V domains shown, Mouse monoclonal antibody from a hybridoma; also called clone #77; clone #77 monoclonal antibody) VH: QIQLVHSGPELKKPGETVKISCKASGYTFTDYSMHWVKQAPGKGLKWMGWINTETGEPTYADDFKGRFAFSLETSASTAYLQINNLKNEDTATYFCARMYDYSYYFDYWGQGTTLTVSS VL: DIQMTQSPASLSVSVGETVTITCRASENIYSNLAWYQQKQGKSPQLLVYAATNLADGVPSRFSGSGSGTQYSLKINSLQSEDFGSYYCQHFWGTPYTFGGGTKLEIKR
